Measurements: the supplement of paper PMC9112550, “Optimization of the antimicrobial peptide Bac7 by deep mutational scanning” (BMC Biology, 2022)

Test system: Escherichia coli TOP10
Experiment: shrunken log2 fold change of peptide-encoding DNA abundance (4.5 h post-induction vs induction); higher = less antimicrobial activity (less host growth inhibition)
Settings: time post-induction: 4.5 h; library: site-saturation at positions 5, 18, 19, 20
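Further: peptides expressed intracellularly from a pBAD plasmid library in pooled LB shake-flask culture, induced with 0.3% L-arabinose, DNA abundance read by NGS, three biological replicates, DESeq2 with apeglm shrinkage.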

Sequence	shrunken log2 fold change
RRIRKRPPRLPRPRPRPNGGPRP	0.0116
RRIRGRPPRLPRPRPRPPGNPRP	0.432
RRIRTRPPRLPRPRPRPRKWPRP	0.215
RRIRKRPPRLPRPRPRPQCAPRP	0.28
RRIRPRPPRLPRPRPRPRESPRP	0.0752
RRIRHRPPRLPRPRPRPDQCPRP	-0.000823
RRIRCRPPRLPRPRPRPFDLPRP	-0.0696
RRIRNRPPRLPRPRPRPRRGPRP	0.78
RRIRYRPPRLPRPRPRPPYNPRP	-1.41
RRIRDRPPRLPRPRPRPTCFPRP	0.0704
RRIRCRPPRLPRPRPRPFMSPRP	0.0579
RRIRNRPPRLPRPRPRPIVRPRP	0.0133
RRIRKRPPRLPRPRPRPDAPPRP	1.46
RRIRERPPRLPRPRPRPDNEPRP	-0.0338
RRIRYRPPRLPRPRPRPNDGPRP	-0.0117
RRIRIRPPRLPRPRPRPALSPRP	0.114
RRIRTRPPRLPRPRPRPLAMPRP	0.128
RRIRDRPPRLPRPRPRPARAPRP	0.928
RRIRCRPPRLPRPRPRPWLCPRP	-0.182
RRIRFRPPRLPRPRPRPIAGPRP	0.0541
RRIRQRPPRLPRPRPRPQLEPRP	0.307
RRIRKRPPRLPRPRPRPLLSPRP	0.523

Sequence	shrunken log2 fold change
RRIRWRPPRLPRPRPRPTMWPRP	0.615
RRIRDRPPRLPRPRPRPAGCPRP	0.738
RRIRRRPPRLPRPRPRPMYYPRP	-0.232
RRIRCRPPRLPRPRPRPVLYPRP	-0.432
RRIRTRPPRLPRPRPRPEKNPRP	0.0495
RRIRRRPPRLPRPRPRPAIQPRP	0.561
RRIRERPPRLPRPRPRPEYLPRP	-1.13
RRIRDRPPRLPRPRPRPIDKPRP	-0.0708
RRIRKRPPRLPRPRPRPWTVPRP	-1.8
RRIRIRPPRLPRPRPRPDEMPRP	-0.15
RRIRWRPPRLPRPRPRPDDWPRP	0.288
RRIRTRPPRLPRPRPRPKDSPRP	0.0052
RRIRERPPRLPRPRPRPCYDPRP	-1.93
RRIRFRPPRLPRPRPRPDWKPRP	0.0379
RRIRNRPPRLPRPRPRPDKNPRP	-0.226
RRIRTRPPRLPRPRPRPMKYPRP	-0.0467
RRIRERPPRLPRPRPRPIVMPRP	-0.86
RRIRSRPPRLPRPRPRPQCWPRP	0.24
RRIRQRPPRLPRPRPRPSNCPRP	-0.136
RRIRERPPRLPRPRPRPMLNPRP	-0.106
RRIRCRPPRLPRPRPRPYFNPRP	-1.04
RRIRLRPPRLPRPRPRPGTWPRP	0.0714

Sequence	shrunken log2 fold change
RRIRHRPPRLPRPRPRPITIPRP	-0.124
RRIRLRPPRLPRPRPRPWWDPRP	-0.305
RRIRHRPPRLPRPRPRPQNCPRP	0.0145
RRIRDRPPRLPRPRPRPCHPPRP	-0.0697
RRIRERPPRLPRPRPRPIQLPRP	-0.446
RRIRCRPPRLPRPRPRPHEQPRP	-0.15
RRIRFRPPRLPRPRPRPGVVPRP	0.231
RRIRWRPPRLPRPRPRPCNDPRP	-0.172
RRIRPRPPRLPRPRPRPQYMPRP	-0.506
RRIRYRPPRLPRPRPRPGYVPRP	-1.05
RRIRNRPPRLPRPRPRPFACPRP	0.0153
RRIRNRPPRLPRPRPRPEMFPRP	0.0119
RRIRNRPPRLPRPRPRPMWCPRP	-0.0647
RRIRMRPPRLPRPRPRPPYQPRP	0.0406
RRIRNRPPRLPRPRPRPWQHPRP	0.178
RRIRARPPRLPRPRPRPSHQPRP	-0.138
RRIRLRPPRLPRPRPRPTLHPRP	0.18
RRIRGRPPRLPRPRPRPHRAPRP	0.108
RRIRDRPPRLPRPRPRPVNQPRP	0.0383
RRIRYRPPRLPRPRPRPGSLPRP	-0.0848
RRIRTRPPRLPRPRPRPKMKPRP	-0.554
RRIRGRPPRLPRPRPRPKAYPRP	0.12

Sequence	shrunken log2 fold change
RRIRIRPPRLPRPRPRPFPTPRP	0.0232
RRIRHRPPRLPRPRPRPMWLPRP	-0.362
RRIRYRPPRLPRPRPRPWHTPRP	-1.52
RRIRPRPPRLPRPRPRPRQNPRP	0.463
RRIRSRPPRLPRPRPRPFAAPRP	0.355
RRIRCRPPRLPRPRPRPCLAPRP	-0.257
RRIRNRPPRLPRPRPRPYPSPRP	0.0309
RRIRLRPPRLPRPRPRPANHPRP	-0.333
RRIRARPPRLPRPRPRPRIYPRP	-0.0488
RRIRWRPPRLPRPRPRPAPRPRP	1.12
RRIRNRPPRLPRPRPRPFYEPRP	-0.233
RRIRNRPPRLPRPRPRPKQSPRP	-0.135
RRIRVRPPRLPRPRPRPLRQPRP	0.395
RRIRQRPPRLPRPRPRPTPYPRP	-0.266
RRIRRRPPRLPRPRPRPGWKPRP	0.136
RRIRRRPPRLPRPRPRPCWTPRP	-0.13
RRIRFRPPRLPRPRPRPVNQPRP	-0.188
RRIRFRPPRLPRPRPRPCEFPRP	0.0635
RRIRIRPPRLPRPRPRPCWDPRP	-0.0479
RRIRNRPPRLPRPRPRPVWIPRP	-0.111
RRIRHRPPRLPRPRPRPYAVPRP	-0.0274
RRIRHRPPRLPRPRPRPKVIPRP	0.109

Sequence	shrunken log2 fold change
RRIRPRPPRLPRPRPRPVLCPRP	0.282
RRIRARPPRLPRPRPRPSPVPRP	0.355
RRIRTRPPRLPRPRPRPRAGPRP	0.41
RRIRGRPPRLPRPRPRPCPEPRP	-0.0446
RRIRGRPPRLPRPRPRPYYDPRP	-0.294
RRIRWRPPRLPRPRPRPLIGPRP	0.0414
RRIRHRPPRLPRPRPRPVQMPRP	0.0393
RRIRARPPRLPRPRPRPARRPRP	0.388
RRIRARPPRLPRPRPRPYMKPRP	-0.366
RRIRVRPPRLPRPRPRPYIEPRP	-0.584
RRIRPRPPRLPRPRPRPDRAPRP	0.622
RRIRNRPPRLPRPRPRPFMKPRP	-0.0163
RRIRHRPPRLPRPRPRPRYKPRP	-0.424
RRIRGRPPRLPRPRPRPKRLPRP	0.217
RRIRIRPPRLPRPRPRPPRWPRP	0.514
RRIRPRPPRLPRPRPRPPSLPRP	0.381
RRIRTRPPRLPRPRPRPMYNPRP	-0.325
RRIRFRPPRLPRPRPRPGARPRP	0.355
RRIRPRPPRLPRPRPRPYNFPRP	-0.289
RRIRQRPPRLPRPRPRPGLGPRP	0.492
RRIRNRPPRLPRPRPRPCEGPRP	0.111
